Results published in the DeepSol protein solubility set.

Assay: soluble on expression in E. coli; label from the status in PepcDB or PDB records

Sequence | soluble on expression in E. coli
MVSRSFFLTHTFKDVSKLGEGGSYSSDIEVRHDIPWKIRIFKKEGFLGVNLHCEKEECFETKKWTFQTKFTMKLVAVSDFPVSQHDSDNSFVLKHNFKNISRLVEDERDYSDTEKHYNALWSFKIRKFNEHLGIWLICEKEIWEERRWSINLQYELKLISASGKVRSAQYTNVFGVGSLWGILKFISWNNLEKDYVTNDSIDVEVLVKIIEFTELPCTEKTFVLSHIVKNMSSIEDGWKTFSDTQTRFNIPWKLQIRRQDGFVELLLHCSKQLDESRSWSIKTEYQFKLVSTNGRSVAFYGEKVFEKPVGSGWDKLIRWENWASRCNDEFVFEASVRILNTTGIEDENDVDRFSGFAIPVEGQEYSMEKWLEMAFDH | not soluble
MDLFIKKRIKAIQKGDQNAYADLVDLYKDKIYRLCYRMLGNRHEAEDAAQEAFIRAYIHIDTYNPEMKFSTWLYRIATNLTIDKLRKRKPDVYLDEEVGGTDGLTMQAQLPSREASPEEAVESLELQETVQRAIEQLPEKYRSVIVLKYMEDLSLQEISEILGLPVGTVKTRLHRGREALRRQLGHL | not soluble
GPGSMQRLFFRSTCARVRCADLRLKPPVSIPQVTFQTVAFSSSAAGAAVRSGAEGTNTTTKRRSGFGGGAGGGGPVKDRYPPPATDLGDPRRRLAVLVDASSVDPRVFRNTILPAALKVGTPVLIRIFSVQLSSEWEPLVAGSGGTRESATSTEPEWKTSGTANDGREEVSGAAGSRDSGAWCPPVEFFRVERFIPVPMQMEADANHIFDFRKQNQIEAVAFVCGEVDRGVFEGFLPNIAGNGFNQYVLDELGMAKEVLEDGRSEDGTPTVQK | soluble
MGHHHHHHSHMGSLPSRRKSLPSPSLSSSVQGQGPVTMEAERSKATAVALGSFPAGGPAELSLRLGEPLTIVSEDGDWWTVLSEVSGREYNIPSVHVAKVSHGWLYEGLSREKAEELLLLPGNPGGAFLIRESQTRRGSYSLSVRLSRPASWDRIRHYRIHCLDNGWLYISPRLTFPSLQALVDHYSELADDICCLLKEPCVLQRAGPLPGKDIPLPVTVQRTPLNWKELDSSLLFSEAATGEESLLSEGLRESLSFYISLNDEAVSLDDA | not soluble
MTKENICIVFGGKSAEHEVSILTAQNVLNAIDKDKYHVDIIYITNDGDWRKQNNITAEIKSTDELHLENGEALEISQLLKESSSGQPYDAVFPLLHGPNGEDGTIQGLFEVLDVPYVGNGVLSAASSMDKLVMKQLFEHRGLPQLPYISFLRSEYEKYEHNILKLVNDKLNYPVFVKPANLGSSVGISKCNNEAELKEGIKEAFQFDRKLVIEQGVNAREIEVAVLGNDYPEATWPGEVVKDVAFYDYKSKYKDGKVQLQIPADLDEDVQLTLRNMALEAFKATDCSGLVRADFFVTEDNQIYINETNAMPGFTAFSMYPKLWENMGLSYPELITKLIELAKERHQDKQKNKYKIDRSHHHHHH | soluble
STEESMYTRIIKELPREGSSDVLVIKNEHVKKSDIWPSGGEMVVKDLTVKYMDDGNAVLENISFSISPGQRVGLLGRTGSGKSTLLSAFLRMLNIKGDIEIDGVSWNSVTLQEWRKAFGVITQKVFIFSGTFRQNLDPNGKHKDEEINKVADEVGLKSVIEQFPGQLNFTLVDGGYVLSHGHKQLMCLARSVLSKAKIILLDEPSAHLDPITYQVIRRVLKQAFAGCTVILCEHRIEAMLDCQRFLVIEESNVWQYDSLQALLSEKSIFQQAISSSEKMRFFQGRHSSKHKPRTQITALKEETEEEVQETRL | soluble
NLYFQGHMDNVDELRKIENKSSFVSADNMPEYVKGAFISMQDERFYNHHGFDLKGTTRALFSTISDRDVQGGSTITQQVVKNYFYDNDRSFTRKVKELFVAHRVEKQYNKNEILSFYLNNIYFGDNQYTLEGAANHYFGTTVNKNSTTMSHITVLQSAILASKVNAPSVYNINNMSENFTQRVSTNLEKMKQQNYINETQYQQAMSQLN | soluble
MAIPSRSPLASRALSFLGALSLLTFAATPVLAESTPTAAPPQFAVESPKAASSLLLSVAHAGKRLVAVGDRGHILLSDDDGKTWTQAKVPTRQLLTSVFFVNERKGWAVGHDAQILVSDDAGSTWARQFEDLGREAPLLDIWFADEQHGLAVGAYGALLETRDGGQHWEDVSERLDNEDQFHLNAIAAVKDNGLLVVGEAGSLFRSKDWGATWEKLEGPYEGSLFGAIGTADAGGVLVYGLRGHLFRSADFGDSWEEIPLKAASGDLEFGLSDGALLADGRIVVVGHGGSVLESTDGGRSFSVFNRPDRLSLAGVSATGDGHLILVGQGGVHLAAANGAALEQQQLEHHHHHH | soluble
MSLTTPSKKTLLFDLDGTLVDSFPGIRTSFLHTLHEKNWEIPSEERISQVPGPPMEWTFQDLGMTPEQAQDALQTYLEHYGQVGWDLSEAFPGMRDLLIRLKYEGFRLCTATSKGEFFAEKVLRKFEMFDLFEFMGAATDNGNRRSKSAVIKHVLDSVGLDEPNDILMIGDRSHDIEGSSEFGIDCVAVTWGYGSKTEWDAARYTVSTAEELERIIHDWAEGHHHHHH | soluble
MNIFNPNHDRKAIVIFSGGQDSTTCLFQAIAEYGKENIEAITFQYGQRHAIELEKARTIAQDLGIKQTLIDTSVMKAITHNALMDEQAHIEQKENELPNTFVDGRNALFLLYAAIYAKGQGIQDIITGVCETDFSGYPDCRDVFIKSMNVTLNLAMDYPIPISKTPLMYLTKAQTWQLADEFRRIRLCTKTYSHLL | not soluble
MAHHHHHHMDTDKIKKRINAYNQDGIRNSALAIILCHRYEYPHLLLLQNIESQTYHLLSGKYKSWEKPREVLKKKLQKYVNQIRDMHFGTSHFNTEEKETEDPIEIGEFLGEWWKTQFNSVYLPYLPAHITRPKEYIRLYQVTLTSRCIFHLPPGFTLKALPLFDLSTCGVAIGGLTSVLSRFKLHCMVPVEE | not soluble
GCDLERYPLTDLSEETFWNSESNAELALTSLYRGSLTDGVEYNPSDWWSYHGMIMMEHLSDNAFDRRGENNPFFKISSGNLTADNAFIKRYWETSYKRIGYCNRFLVGIQNSSESEKKTRMIAEARFLRATQYFYLASYFKNVPLVENVLTGEEANNVTKTSQADILKWCVTEFTAAAADLPRFSAIPAGEAGRACKQAALAFLGRTCMLQKDWKSGAKAFHDIMELGDNAINANYQELFYPSTGTSNKENIFYIQYLENYLGTGLPQHALSAKDGGWSLVNPAADLYESYEFKDGTPFSYDDPRYDPSNLGKDRDPRLDYTIYYNGAIFMGTEYKMSPDYSAAKKEKLDYTSEASRTGFMMRKYFEESTPINDVQSANGLTPVIRYAEVLLGYLECLVEDNQTITQGILDETINAVRGRASVNMPPVTEVTPAKLREIVRHERRIELAMEGIRYWDIMRWGIAHEVLSQKIWGAPYPGSTQYATTTKEVDPTGNYRWYVGKRAFRNPTDYTWPIPQSEQNINPNLRD | soluble
MGESSGGGNSRQLQFSRKAGKGVVKTIHEYRSKPLRVGRKGEWRPAISDENRKLIRGVAEIIKIRPINVPDYAVVNPLGIMRQAYGTMVGGIANEPWSLESRKTIEEVVFLPIMDGEVRKGQLEHHHHHH | not soluble
MVSDAHFQGQFEVELKYRVKNHDAFLNMVKQIEHEVMFENNQESDWFYDTPQRTLTQQGKSLVLREIQPAGIKLWIVKGPEADRCEATNITKLDSAQSMLENMGYEVIQCSKKIRSIFFVGEFHITLDFLDGFGHFAEFAIMTDDETALARYRERLVALAQQFHLSEADREHRSYKEILSALEHHHHHH | soluble
MSLGSGSGLSYNAGITQDNFLGMGSSLGLNGSRNTDSTNVNLSYTEPYFTKDGVSLGGNIFYEDYDNSARKASAAYKRKTYGASGTLGFPVDENNSYYLGLGYTHDKLRNVEREYTREKYVNSMKFPINPQNSHYDRIQSADFDLSFGWNYNNLNRGYFPTAGSSANISGKLTLPGSDNKYYQVGTNFSGYIPLNSEHKWVIATKGGLAYTNSFGGKEVPFYQLYSAGGMGSLRGFAGGSIGPKAIYYREDGFKAPSQDVIGGNAMVNASLELIIPAPFISDKYQHNVRTSVFVDAATVWNTKWKQSKADYPNLPDFGDYKRVRASAGIALQWQSPIGPLSFSYAKPIKKYAGDEIEQFQFTVGSTFEGHHHHHH | not soluble
